Measured values published in the nanobody polyreactivity screen of Harvey et al. (2022).

experiment: yeast display, Sf9 membrane polyspecificity reagent, FACS + sequencing; frameworks hold sequencing errors
Procedure, shortened: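 Galactose induction of a Saccharomyces cerevisiae BJ5465 synthetic nanobody display library ran 36–48 hours. The cells were then stained for 1 hour at 4 °C with 10% biotinylated, detergent-solubilized Sf9 membrane reagent, pulled down on streptavidin microbeads and FACS-sorted into low and high (top ~1%) gates on expression and reagent-binding fluorescence. Labels for polyreactivity follow the gate of origin.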

Which “polyreactivity (PSR sort gate)” value does the source give for “QVQLVESGGGLVQAGGSLRLSCAASGSTFYAYVMGWYRQAPGKERELVAGISWSGGSTYYADSVKGRFTISRDNAKNTVYLQMNSLKPEDTAVYFFAADYYNTYGYDYWGQGTQVTVSS” here?
The value was “low polyreactivity”.

Which “polyreactivity (PSR sort gate)” value does the source give for “QVQLVESGGGLVQAGGSLRLSCAASGSTFYDNAMGWYRQAPGKERELVAAIDGGDTYYADSVKGRFTISRDNAKNTVYLQMISLKPEDTAVYYCAAESLPEISVGLGYWGQGTQVTVSS” here?
The value was “low polyreactivity”.

Which “polyreactivity (PSR sort gate)” value does the source give for “QVQLVESGGGLVQAGGSLRLSCAASGSTFYDNAMGWYRQAPGKERELVARIRWSGVRTYYADSVKGRFTISRDNAKNTVYLQMISLKPEDTAVYYCAAGRPRPHWWSLDYYYWGQGTQVTVSS” here?
The value was “low polyreactivity”.

With “QVQLVESGGGLVQAGGSLRLSCAASGSTFYFNAMGWYIQAPGKERELVADINYSGTSTYYADSVKGRFTISRDNAKNTVYLQMNSLKPEDTAVYYCAKSLPSSNTSTSYDYWGQGTQVTVSS” as the sequence, how does the “polyreactivity (PSR sort gate)” value read?
The value was “low polyreactivity”.

For “QVQLVESGGGLVQAGGSLRLSCAASGSTFYFNAMGWYRQAPGKERELVATISDNDGSTNYADSVKGRFTISRDNAKNTVYLLMISLKPEDTGVYYCNADWYYYYEEDDYWGQGTQVTVSS”, which “polyreactivity (PSR sort gate)” value is on record?
Its value is “low polyreactivity”.

For “QVQLVESGGGLVQAGGSLRLSCAASGSTFYFYAMGWYRQAPGKERELVAAISQSGGTTYYADSVKGRFTISRDNAKNTVFLQMNSLKPEDTAVYYCNADTDTWYTEYDYWGQGTQVTVSS”, which “polyreactivity (PSR sort gate)” value is on record?
Its value is “low polyreactivity”.

For “QVQLVESGGGLVQAGGSLRLSCAASGSTFYFYAMGWYRQAPGKERELVAAISSSGGSTYYADSVKGRFTISRDNAKNTVYLQMNSLKPEDTAVYYCAADDAIYDSLDYWGQGTQVTVSS”, which “polyreactivity (PSR sort gate)” value is on record?
The value was “low polyreactivity”.

Which “polyreactivity (PSR sort gate)” value does the source give for “QVQLVESGGGLVQAGGSLRLSCAASGSTFYFYTMVWYRQAPGKEREFVAAISRRGGSTYYADSVKGRFTISRDNAKNTVYLQMNSLKPEDTAVYYCAAYTSTSDNGDSWGQGTQVTVSS” here?
The value was “high polyreactivity”.

Which “polyreactivity (PSR sort gate)” value does the source give for “QVQLVESGGGLVQAGGSLRLSCAASGSTFYGNAMGRYRQAPGKEWELVAAISWSGGSTYYADSVKGRFTISRDNAKNTVYLQMNSLKPEDTAVYYCNADGSDRVWYDGYDYWGQGTQVTVSS” here?
The value was “low polyreactivity”.

Which “polyreactivity (PSR sort gate)” value does the source give for “QVQLVESGGGLVQAGGSLRLSCAASGSTFYGNAMGWYRQAPGKERELVAAISWSGGSTYYADSVKGRFTISRDNAKNTVYLQMNSLKPEDTAVYYCNKDVLLYYVYGHDYWGQGTQVTVSS” here?
The value was “low polyreactivity”.

For “QVQLVESGGGLVQAGGSLRLSCAASGSTFYGYAMGWYRQAPGKERELVAAITRSGGSTYYADSVKGRFTISRDNAKNTVYLQMNSLKPEDTEVYYCNKYGYKGGVGYDYWGQGSQVTVSS”, which “polyreactivity (PSR sort gate)” value is on record?
The value was “high polyreactivity”.

Which “polyreactivity (PSR sort gate)” value does the source give for “QVQLVESGGGLVQAGGSLRLSCAASGSTFYGYAMGWYRQAPGKERELVAAITVRGGSTYYADSVKGRFTISRDNAKNTVYLQMNSLKPEDTAVYYCAKGRLRRTYYRNKFSFDYWGQGTQVTVSS” here?
The value was “high polyreactivity”.

Which “polyreactivity (PSR sort gate)” value does the source give for “QVQLVESGGGLVQAGGSLRLSCAASGSTFYGYTMGWYRQAPGKERELVAAISSSGSSTYYADSVKGRFTISRDNAKNTVYLQMNSLKPVDTAVYYCAAATRVPGHGSTSYYYWGQGTQVTVSS” here?
Its value is “high polyreactivity”.

For “QVQLVESGGGLVQAGGSLRLSCAASGSTFYGYVMGWYRQAPGKERDFVAGITRGGSTNYADSVKGRFTISRDNAKNTVYLQMNSLKPEDTAVYYCATRYFSRYYYWGQGTQVTVSS”, which “polyreactivity (PSR sort gate)” value is on record?
The value was “high polyreactivity”.

Which “polyreactivity (PSR sort gate)” value does the source give for “QVQLVESGGGLVQAGGSLRLSCAASGSTFYHYAMGWYRQAPGKERELVAAISSSGGRTYYADSVKGRFTISRDNAKNTVYLQMNSLKPEDTAVYYCAARAKTSGSIEDYWGQGTQVTVSS” here?
Its value is “high polyreactivity”.

With “QVQLVESGGGLVQAGGSLRLSCAASGSTFYINALGWYRQAPGKESELVAAITWNSDSTYYADSVKVRFTISRDNSKNTVYLQMNSLKPEDTAVYYCNHDRIIWGRLYEEGDYWGQGTQVTVSS” as the sequence, how does the “polyreactivity (PSR sort gate)” value read?
Its value is “low polyreactivity”.

Which “polyreactivity (PSR sort gate)” value does the source give for “QVQLVESGGGLVQAGGSLRLSCAASGSTFYIYAMGWSRQAPGKEREFVAAIDFSGSSTYADSVKGRFTISLDNAKNTVYLQMNSLKPEDTAVYYCAAYQIYQYYGPYDYWGQGTQVTVSS” here?
Its value is “low polyreactivity”.

With “QVQLVESGGGLVQAGGSLRLSCAASGSTFYIYAMGWYRQAPGKEREFVAAIDLSGSSTYADSVKGRFTISRDNAKNTVYLQMKSLKPEDTAVYYCAAYQIYQYDGPYDYWGQGTQVTVSS” as the sequence, how does the “polyreactivity (PSR sort gate)” value read?
The value was “low polyreactivity”.

Which “polyreactivity (PSR sort gate)” value does the source give for “QVQLVESGGGLVQAGGSLRLSCAASGSTFYIYAMGWYRQAPGKERELVARITRGGTTYADSVKGRFTISRDNAKNTVYLQMNSLKLEDTAVYYCNAASKTTRYYQAFYSGGGYWGQGTQVTVSS” here?
The value was “high polyreactivity”.

For “QVQLVESGGGLVQAGGSLRLSCAASGSTFYIYAMGWYRQATGKERELVARITRGGTTYADSEKGRFTISRDNAKNTVYLQMNSLKPEDTAVYYCNAASKTTRYYQAFYSGGGYWGQGTQVTVSS”, which “polyreactivity (PSR sort gate)” value is on record?
Its value is “high polyreactivity”.

For “QVQLVESGGGLVQAGGSLRLSCAASGSTFYIYGMGWYRQAPGKERELVAAISQRDGSTYYADSEKGRFTSSRDNAKNTVYLQMNSLKPEDTAVYYCNAGLWYSSYDSDYWGQGTQVTVSS”, which “polyreactivity (PSR sort gate)” value is on record?
Its value is “low polyreactivity”.
